Results on 8 molecules are retold here after patent publication US20240084003A1 (SIMCERE ZAIMING PHARMACEUTICAL, published 2024).

Experiment [1] concerns the target T1, CD22 on cynomolgus monkey peripheral blood B cells (cynomolgus monkey (Macaca fascicularis)).
T1 construct: whole, on cells; also called cynomolgus monkey B cells
Kind of experiment: FACS, cynomolgus PBMC, CD20+ B cells, antibody 100 nM. In a few lines: (§1)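 Readout: % chimeric-antibody-positive cells among CD20+ gated B cells, FACS. Cyno PBMC (Ficoll) in PBS/1% BSA; test Ab plus BV605 anti-CD20, 1 h RT; APC anti-hIgG Fc secondary, 30 min RT dark; washes between steps.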
(In flow cytometry, cells or beads pass a laser one at a time.)

In experiment [2] the target is T2, monkey CD22 protein (ACROBiosystems, catalog number SI2-R52Ha) (monkey, UniProt F6W485 20-688).
T2 construct: commercial protein; also called monkey CD22-ECD; monkey CD22-ECD-His
T2 sequence: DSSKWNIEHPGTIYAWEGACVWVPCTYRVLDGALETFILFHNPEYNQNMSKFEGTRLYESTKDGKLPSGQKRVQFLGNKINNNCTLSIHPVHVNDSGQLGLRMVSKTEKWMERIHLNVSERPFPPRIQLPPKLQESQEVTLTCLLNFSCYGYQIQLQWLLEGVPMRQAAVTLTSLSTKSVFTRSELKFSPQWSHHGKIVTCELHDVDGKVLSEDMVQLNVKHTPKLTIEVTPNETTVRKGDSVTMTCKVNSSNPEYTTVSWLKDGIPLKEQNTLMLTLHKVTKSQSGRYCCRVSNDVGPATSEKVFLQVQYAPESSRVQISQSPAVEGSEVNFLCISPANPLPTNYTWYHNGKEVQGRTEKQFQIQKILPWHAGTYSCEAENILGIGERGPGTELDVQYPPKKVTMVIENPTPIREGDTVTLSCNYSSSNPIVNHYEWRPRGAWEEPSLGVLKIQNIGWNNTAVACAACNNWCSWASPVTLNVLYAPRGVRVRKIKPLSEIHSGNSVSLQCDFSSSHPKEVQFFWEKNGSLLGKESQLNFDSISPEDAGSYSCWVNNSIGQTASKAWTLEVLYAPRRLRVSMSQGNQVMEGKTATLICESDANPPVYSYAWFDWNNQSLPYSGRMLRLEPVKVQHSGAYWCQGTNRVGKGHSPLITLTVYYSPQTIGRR
The experiment is described as follows: ELISA, coated monkey CD22 protein, antibody 0.0001 nM. The procedure, abridged:
(§2)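 Read-out is TMB absorbance after a 30 min room-temperature development stopped with 1.0 N HCl. It reflects chimeric antibody bound to plate-coated CD22 (2 μg/mL), detected with an HRP-labelled secondary antibody. Antibody and secondary incubations each ran 2 h at 37° C.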
In general terms: An ELISA detects its analyte on a solid surface through an enzyme-linked reagent.

Experiment [3] deals with T2, monkey CD22 protein (ACROBiosystems, …). The experiment is described as follows: ELISA, coated monkey CD22 protein, antibody 10 nM. The procedure, abridged: as §2
For experiment [4] the target is unchanged. The experiment is described as follows: ELISA, coated monkey CD22 protein, antibody 0.001 nM. In a few lines: as §2
Experiment [5] deals with T1, CD22 on cynomolgus monkey peripheral …. Kind of experiment: FACS, cynomolgus PBMC, CD20+ B cells, antibody 10 nM. In a few lines: as §1
For experiment [6], the target named is T2, monkey CD22 protein (ACROBiosystems, …). The experiment is described as follows: ELISA, coated monkey CD22 protein, antibody 0.1 nM. The procedure, abridged: as §2
Experiment [7] shares this target. The experiment is described as follows: ELISA, coated monkey CD22 protein, antibody 0.01 nM. In a few lines: as §2
Experiment [8] has as its target T1, CD22 on cynomolgus monkey peripheral …. Kind of experiment: FACS, cynomolgus PBMC, CD20+ B cells, antibody 1 nM. The procedure, abridged:
as §1

Experiment [9] addresses T2, monkey CD22 protein (ACROBiosystems, …). The experiment is described as follows: ELISA, coated monkey CD22 protein, antibody 0.00001 nM. In a few lines:
as §2

Experiment [10] has the same target. The experiment is described as follows: ELISA, coated monkey CD22 protein, antibody 100 nM. The procedure, abridged: as §2

B1: F2.70.2 (antibody, human IgG1, lambda, V domains shown)
VH: EVQLVESGGGLVKPGGSLKLSCAASGFTFSDYGMNWFRQAPEKGLEWVAYISRGSHTIYYADTVKGRFTISRDNAKNTLFLQMTSLRSNDTAMYYCVRMAGYYAMDYWGQGTSVTVSS
VL: QLVLTQSSSASFSLGASAKLTCTLSSQHSSYIIEWYQQQPLKPPKYVMELKKDGSHSTGDGIPDRFSGSSSGADRYLSISNIQPEDEAIYICGVGDTIKEQFVYVFGGGTKVTVLG
notes: human-murine chimeric IgG1 lambda
Turning to B1, the “Proportion of chimeric antibody positive cells to B cells (%)” value (from here on “Proportion … (%)”) in experiment [1] was 34%; in [5], 20%; in [8] it was 20%. The OD450 in experiment [2] stood at 0.06 OD450; in experiment [3], 0.08 OD450; in [4] it was 0.07 OD450; in experiment [6] it was 0.06 OD450; in [7], 0.06 OD450; in [9], 0.06 OD450. The same molecule had an OD450 in [10] of 0.11 OD450.

B2: F2.180.16 (antibody, human IgG1, lambda, V domains shown)
VH: EVKLVESGGGLVLPGGSLKISCAASGFTFSDYYMYWIRQTPDKRLEWVAYISNTGYSTFYPDSVKGRFTVSRDNAKNTLYLQMSRLQSEDTAMYYCARHGILYAMDYWGQGTSVTVSS
VL: QPVLTQSSSASFSLGASAKLTCTLSSQYSTYTIGWYQQQPLKPPKYVMELKHDGSRHTGDGIPDRFSGSSSGADRYLSISNIQPEDEATYICGVGDTIKEQFMYVFGGGTKVTVLG
notes: as for B1
B2: the “Proportion … (%)” value worked out at 23% in experiment [1], 20% in experiment [5] and 16% in experiment [8]. Also, the OD450 in experiment [2] amounted to 0.05 OD450; in [3], 0.06 OD450; in [4] it was 0.05 OD450; in experiment [6] it was 0.05 OD450; in experiment [7] it was 0.05 OD450; in experiment [9], 0.05 OD450. This molecule displayed an OD450 in experiment [10] of 0.06 OD450.

B3: F2.173.9 (antibody, human IgG1, lambda, V domains shown)
VH: EVQLVESGGDLVKPGESLKLSCEASGFTFSNYAMSWVRQTPDRRLEWVATISSIGSFTYYSDSVKGRFTISRDNVKSTLHLQMNNLKSGDTAIYFCARLGVYFDSWGQGTTLTVSS
VL: QLVLTQSSSASFSLGASAKLTCTLSSQHSTYTIEWYQQQPHKPPKFVMEIKKDGSHYTGDGIPDRFSGSSSGADRYLSISNIQPEDETIYICGVSDMIKDQFVYVFGGGTKVTVLG
notes: as for B1
In the case of B3, the “Proportion … (%)” value in [1] turned out to be 71%; in [5] it was 43%; in experiment [8], 19%. The OD450 was 0.06 OD450 in experiment [2]; 1.12 OD450 in experiment [3]; 0.12 OD450 in experiment [4]; 1.25 OD450 in experiment [6]; 0.38 OD450 in [7]; 0.06 OD450 in [9]. This molecule returned an OD450 in experiment [10] of 1.18 OD450.

B4: F2.104.10 (antibody, human IgG1, lambda, V domains shown)
VH: EVQLVESGGGFVKPGGSLKLSCAASGFTFSDYGMNWFRQAPEKGLEWVAYISRGSHTIYYADTVKGRFTISRDNAENTLFLQMTSLRSNDTAMYYCVRMAGYYAMDYWGQGTSLTVSS
VL: QLVLTQSSSASFSLGASAKLTCTLSSQHSSYIIEWYQQQPLKPPKYVMEVKKDGSHSTGDGIPDRFSGSSSGADRYLSISNIQSEDEAIYICGVGDTIKEQFVYVFGGGTKVTVLG
notes: as for B1
As to B4, the “Proportion … (%)” value in experiment [1] came to 26%; in experiment [5], 21%; in experiment [8] it was 19%. The OD450 was 0.05 OD450 in experiment [2]; 0.07 OD450 in experiment [3]; 0.05 OD450 in experiment [4]; 0.05 OD450 in experiment [6]; 0.06 OD450 in experiment [7]; 0.05 OD450 in [9]. The molecule further displayed an OD450 in [10] of 0.07 OD450.

B5: F1.257.3 (antibody, human IgG1, kappa, V domains shown)
VH: QVQLQQSGPELARPGASVKLSCKASGYTFTSYGISWVKQRTGQDLEWIGEIYPKLGTTYYNEKFKDKATLTTDRSSSTAYMALRSLTSEDSAVYFCACPHYYATRGGDYWGQGTTLTVSS
VL: EIVLTQSPATLSVTPGDSVTFSCRASQSISNHLHWYQQKSHESPRLLIRYASQSISGIPSRFSGSGSGTDFTLSLSSVETEDFGVYFCQQSHSWPYTFGGGTKLEIAR
notes: human-murine chimeric IgG1 kappa; VL name legible
As for B5, the results for the “Proportion … (%)” value in experiment [1], in [5] and in [8] were 34%, 20% and 17%, respectively. The OD450 is 0.06 OD450 in experiment [2]; 0.07 OD450 in [3]; 0.05 OD450 in experiment [4]; 0.06 OD450 in [6]; 0.05 OD450 in experiment [7]; 0.06 OD450 in experiment [9]. Further, the OD450 in experiment [10] was 0.18 OD450.

B6: F2.343.16 (antibody, human IgG1, lambda, V domains shown)
VH: QVQLKQSGPGLVQPSQSLSITCTVSGFSLTGYGVQWVRQSPGKGLEWLGVIWGGGGTDYNAAFISRLNIIKDNSKSQVFFKMNSLQADDTAIYYCARYSKYGHFDVWGTGTAVTVSS
VL: QAVVTQESALTTSPGETVTLTCRSSTGAVTTSNYANWVQEKPDHLFTGLIGGTYNRVPGVPARFSGSLIGDKAALTITGAQTEDEAIYFCALWYSNHFWVFGGGTKLTVLG
notes: human-murine chimeric IgG1 lambda; VL name legible
B6: the “Proportion … (%)” value in experiment [1] was 22%; in experiment [5], 21%; in experiment [8], 21%. The OD450 in experiment [2] is 0.05 OD450; in experiment [3], 0.06 OD450; in experiment [4] it was 0.05 OD450; in experiment [6], 0.05 OD450; in experiment [7], 0.05 OD450; in [9], 0.05 OD450. In experiment [10], this molecule displayed an OD450 of 0.08 OD450.

B7: F2.121.9 (antibody, human IgG1, lambda, V domains shown)
VH: EVQLVESGGGLVKPGGSLKLSCAASGFTFSDYVMSWIRQTPEKRLEWVATISDAGSYTFYPDNLKGRFTISRDNAKNNLYLQMNHLTSEDTAFYYCAIIYFGNYGGYWGQGTLVTVSV
VL: QAVVTQESALTTSPGGTVVLTCRSNTGAVTTSNYANWVQEKPDHLFTGLIGGTSNRAPGVPVRFSGSLIGDKAALTITGAQTEDDAMYFCALWYSTHWVFGGGTKLTVLG
notes: as for B1
B7: the “Proportion … (%)” value was 64% in [1], 56% in [5] and 27% in [8]. Besides, the OD450 in [2] was 0.05 OD450; in [3], 0.56 OD450; in experiment [4], 0.06 OD450; in experiment [6], 0.34 OD450; in [7] it was 0.13 OD450; in experiment [9], 0.05 OD450. The molecule also had an OD450 in [10] of 0.72 OD450.

B8: F1.62.10 (antibody, human IgG1, kappa, V domains shown)
VH: QVQLQQSGPELVKPGASVKISCKASGYEFSSIWMNWVKQRPGEGLEWIGRIFPGDGEINYNEKFKGKATLTADRSSTTAYMQLSSLTSEDSAVYFCAGWRIYYGTYGAMDYWGQGTSVTVSS
VL: DIQMTQITSSLSASLGDRVTISCRASQDIGNYLNWYQQKPDGTVKLLIYYTSRLHSGVPSRFSGSGSRTDYSLTISNLQQEDIATYFCQQGNTLPWTFGGGTKLEIKR
notes: human-murine chimeric IgG1 kappa
For the molecule B8, the entries for the “Proportion … (%)” value in [1], in [5] and in [8] were 24%, 19% and 17%, respectively. For the same molecule, the OD450 in experiment [2] is 0.06 OD450; in experiment [3], 0.18 OD450; in experiment [4], 0.05 OD450; in [6] it was 0.07 OD450; in experiment [7], 0.05 OD450; in [9] it was 0.06 OD450. Further, in experiment [10], the OD450 is 0.36 OD450.
